Measured values taken from patent publication US9353421, “Aptamers that are specific for immunoglobulin-binding cell wall proteins” (Helmholtz-Zentrum für Umweltforschung GmbH-UFZ).

Columns and labels:
[1] = biological target: T1, Protein A (native, biotinylated) (Staphylococcus aureus, UniProt P02976 P02976:37-485); test: pulldown; magnetic bead binding; negative result; 10 mM MgCl2, 21 C; conditions: tags: biotin, immobilized on streptavidin Dynabeads M-280; Sigma-Aldrich P2165; label: fluorescein
T1 sequence (P02976 37-485, one chain of several): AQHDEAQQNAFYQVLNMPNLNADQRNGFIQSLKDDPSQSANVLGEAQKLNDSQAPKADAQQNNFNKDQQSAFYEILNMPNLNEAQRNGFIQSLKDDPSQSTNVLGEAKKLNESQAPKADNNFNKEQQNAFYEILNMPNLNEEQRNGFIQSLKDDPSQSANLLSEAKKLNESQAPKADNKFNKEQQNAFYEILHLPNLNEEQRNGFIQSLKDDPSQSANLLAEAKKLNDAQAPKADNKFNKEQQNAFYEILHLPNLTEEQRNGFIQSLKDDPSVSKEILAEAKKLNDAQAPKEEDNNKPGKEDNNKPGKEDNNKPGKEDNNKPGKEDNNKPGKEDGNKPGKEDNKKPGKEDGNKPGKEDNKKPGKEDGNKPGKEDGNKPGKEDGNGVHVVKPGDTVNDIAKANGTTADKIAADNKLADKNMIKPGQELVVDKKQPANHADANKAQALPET
Protocol: (§1) The binding experiments were carried out under the SELEX conditions. 2.5-3 ×10^7 target-modified magnetic beads and ~55 pmol of fluorescein-labeled aptamer ssDNA in binding buffer (100 mM NaCl, 20 mM Tris-HCl, pH 7.6, 10 mM MgCl_2, 5 mM KCl, 1 mM CaCl_2) were employed for each experiment. The target-modified magnetic beads were prepared as a preliminary to the binding experiments, wherein Dynabeads® M-280 Streptavidin (Invitrogen, UK) were used in order to immobilize native, biotinylated protein A from *Staphylococcus aureus* (P2165, Sigma-Aldrich, Germany). Before each binding reaction the target-modified magnetic beads were washed several times in binding buffer and the aptamer ssDNA was thermally equilibrated by incubation at 90° C. for 8 min, on ice for 10 min and then converted to RT for ~5 min. The prepared aptamer ssDNA and the washed target-modified magnetic beads were then brought together for binding and incubated for 30 min at 21° C., while shaking. The non-bound ssDNA was removed and the binding complexes were washed several times in binding buffer. Thereafter, the target-bound ssDNA was eluted by means of heat by incubation of the binding complexes in binding buffer at 95° C. for 10 min, while shaking. […] The amount of ssDNA eluted could be quantified on the basis of the fluorescein labeling of the aptamer ssDNA and by means of a calibration curve. […]

[2] = biological target: Protein A (recombinant) (UniProt P02976 P02976:37-485); test: SPR; steady-state avidity (bivalent analyte); 100 mM NaCl, 20 mM Tris-HCl pH 7.6, 10 mM MgCl2, 5 mM KCl, 1 mM CaCl2, 0.005% SP20; conditions: tags: Sigma-Aldrich P7837; label: 3'-biotin
Chain of Protein A (recombinant) (P02976 37-485, one chain of several): as above
Source text: (§2) These changes are emitted as a measurable signal, expressed in resonance units (RU), and are proportional to the amount of target bound on the sensor surface. In the experiments presented here, non-specific ssDNA (SELEX library, 3'-biotinylated) was immobilized in the reference cell and ssDNA of the aptamer PA#2/8 (3'-biotinylated) was immobilized in the measurement cell. The target solution, comprising recombinant protein A (P7837, Sigma-Aldrich, Germany) or native protein A (P3838, Sigma-Aldrich, Germany) in binding buffer (100 mM NaCl, 20 mM Tris-HCl, pH 7.6, 10 mM MgCl_2, 5 mM KCl, 1 mM CaCl_2) with 0.005% SP20, was passed over the prepared sensor surfaces at a flow rate of 10 µl/min. […] The sensorgrams (FIG. 6, 8) show the double-referenced signal curve (measurement cell minus reference cell and buffer reference) during the binding and dissociation phase at different target concentrations in a range of 10 nM-5,000 nM protein A. During such a measurement series the 1,000 nM concentration of protein A was measured 3 times as a control. […]
(§3) From the binding data at the end of each binding phase with the different protein A concentrations a saturation curve was plotted (FIG. 7, 9) and the steady state affinity of the aptamer PA#2/8 for protein A was calculated from this. […]

[3] = biological target: Protein A (native) (UniProt P02976 P02976:37-485); test: as above; conditions: tags: Sigma-Aldrich P3838; label: 3'-biotin
Chain of Protein A (native) (P02976 37-485, one chain of several): as above
Source text: as §2, §3

[4] = biological target: T1, Protein A (native, biotinylated); test: pulldown; magnetic bead binding; retained and even improved vs full length; 10 mM MgCl2, 21 C; conditions: tags: biotin, immobilized on streptavidin Dynabeads M-280; Sigma-Aldrich P2165; label: fluorescein
Protocol: as §1

[5] = biological target: T1, Protein A (native, biotinylated); test: pulldown; magnetic bead binding; complete loss of binding; 10 mM MgCl2, 21 C; conditions: tags: biotin, immobilized on streptavidin Dynabeads M-280; Sigma-Aldrich P2165; label: fluorescein
Protocol: as §1

B1: PA#2/8CR40 (ssDNA)
DNA: AGCAACATGAGGGGGATAGAGGGGGTGGGTTCTCTCGGCT
- binding result [1]: no binding

B2: PA#2/8 (3'-biotin) (ssDNA)
DNA: ATACCAGCTTATTCAATTAGCAACATGAGGGGGATAGAGGGGGTGGGTTCTCTCGGCTACAATCGTAATCAGTTAG
- Kd [2]: 188 nM
- Kd [3]: 75.3 nM

B3: PA#2/8 [A1-58] (ssDNA)
DNA: ATACCAGCTTATTCAATTAGCAACATGAGGGGGATAGAGGGGGTGGGTTCTCTCGGCT
- binding result [4]: binds

B4: PA#2/8 [A19-76] (ssDNA)
DNA: AGCAACATGAGGGGGATAGAGGGGGTGGGTTCTCTCGGCTACAATCGTAATCAGTTAG
- binding result [5]: no binding
